From patent US20050154189A1 (MAXYGEN, published 2005)

Experiments:
Soluble CTLA-4-Ig = target: T1, Soluble CTLA-4-Ig (human, UniProt P16410 36-161, FITC-conjugated in the two-colour FACS assays; unlabelled and detected with FITC goat anti-human IgG in the concentration-dependent assay); assay: two-colour FACS on transfected 293 cells
T1 construct: extracellular domain; Bought from R&D Systems; also called sCTLA-4-Ig; CTLA-4-Ig Fc; not shown: Fc portion of human IgG1
Experimental: (§1) Biotin binds the fluorescence marker Streptavidin-PE. (R-PE has an excitation maximum of 565 nanometers (nm) and an emission maximum of 578 nm. B-PE has excitation and emission maxima of 545 nm and 578 nm, respectively. FITC has excitation and emission maxima of 494 and 519, respectively.) The cells were again washed twice and resuspended in 200 μl medium with 5 μg/ml propidium iodide (PI). The cells were then analyzed using a FACSCalibur flow cytometer and CellQuest software (BDIS, San Jose, Calif.). Cell sorting was performed by flow-cytometry based cell sorting screening methods using FACS (Fluorescence-Activated Cell Sorting) Vantage SE cell sorter (BDIS) (Becton Dickinson; San Jose, Calif.). The staining concentration was determined for each labeled protein to provide a maximal Mean Fluorescence Intensity (MFI) and minimal background signal (e.g., optimum staining concentration was the concentration per 10⁶ cells).

Soluble CD28-Ig = target: T2, Soluble CD28-Ig (human, UniProt P10747 19-152, biotin-conjugated (NHS-biotin) in the labelled-ligand FACS assays); assay: two-colour FACS on transfected 293 cells
T2 construct: extracellular domain; Bought from R&D Systems; also called sCD28-Ig; CD28-Ig Fc; not shown: Fc portion of human IgG1
Experimental: as §1

T1 sequence (P16410 36-161): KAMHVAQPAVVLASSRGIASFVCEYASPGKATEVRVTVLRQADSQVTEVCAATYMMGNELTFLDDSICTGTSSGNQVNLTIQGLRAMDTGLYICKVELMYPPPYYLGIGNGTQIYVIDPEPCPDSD

binding result (Soluble CTLA-4-Ig): binds
binding result (Soluble CD28-Ig): binds
B1: Rhesus B7-1 (ligand)
chain: VIHVTKEVKEVATLSCGHNVSVEELAQTRIYWQKEKKMVLTMMSGDMNIWPEYKNRTIFDITNNLSIVILALRPSDEGTYECVVLKYEKDAFKREHLAEVMLSVKADFPTPSITDFEIPPSNIRRIICSTSGGFPEPRLSWLENGEELNAISTTVSQDPETELYTVSSKLDFNMTTNHSFMCLIKYGHLRVNQTFNWNTPKQEHFPDNLLPSWAITLISVNGIFVICCLTHCFAPRCRERRRNETLRRESVRPV
notes: Wild-type parental gene expressed on transfected 293 cells; also called rhesus monkey B7-1
